Test results from the supplement of paper PMC10567573.

B1: ZNF8 (parent)
chain: VHVIGVEEPSVGASMLFDIREST

Variants of: B1
Assay: protein stability index of a GFP-peptide fusion (GPS, HEK-293T) (PSI 1-6); higher = more stable
Details: c terminus: native
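Note: lentivirally expressed fusions sorted by FACS into six bins by GFP to DsRed ratio, PSI derived from sequencing read proportions per bin multiplied by bin number.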

Row | Variant | protein stability index
1 | VHVIGVEEPSVGASMLGDIREST [F17G] | 3.66
2 | VHVIGVEEPSVGASMLEDIREST [F17E] | 3.91
3 | VHVIGVEEPSVGASMLSDIREST [F17S] | 3.11
4 | VHVIGVEEPSVGASMLYDIREST [F17Y] | 2.15
5 | VHVIGVEEPSVGASMLCDIREST [F17C] | 2.71
6 | VHVIGVEEPSVGASMLQDIREST [F17Q] | 3.41
7 | VHVIGVEEPSVGASMLHDIREST [F17H] | 3.17
8 | VHVIGYEEPSVGASMLFDIREST [V6Y] | 1.9
9 | VHVIGNEEPSVGASMLFDIREST [V6N] | 3.61
10 | VHVIGDEEPSVGASMLFDIREST [V6D] | 3.75
11 | VHVIGKEEPSVGASMLFDIREST [V6K] | 2.61
12 | VHVIGPEEPSVGASMLFDIREST [V6P] | 1.82
13 | VHVIGHEEPSVGASMLFDIREST [V6H] | 2.46
14 | VHVIGFEEPSVGASMLFDIREST [V6F] | 2.27
15 | VHVIGVEEPSVGAEMLFDIREST [S14E] | 2.28
16 | VHVIGVEEPSVGARMLFDIREST [S14R] | 1.9
17 | VHVIGVEEPSVGANMLFDIREST [S14N] | 2.4
18 | VHVIGVEEPSVGAAMLFDIREST [S14A] | 1.86
19 | VHVIGVEEPSVGAIMLFDIREST [S14I] | 3.13
20 | VHVINVEEPSVGASMLFDIREST [G5N] | 2.18
21 | VHVIAVEEPSVGASMLFDIREST [G5A] | 1.63
22 | VHVIPVEEPSVGASMLFDIREST [G5P] | 2.36
23 | VHVIRVEEPSVGASMLFDIREST [G5R] | 1.61
24 | VHVIEVEEPSVGASMLFDIREST [G5E] | 2.42
25 | VHVIKVEEPSVGASMLFDIREST [G5K] | 1.95

Row | Variant | protein stability index
26 | VHVIYVEEPSVGASMLFDIREST [G5Y] | 2.35
27 | VHVIVVEEPSVGASMLFDIREST [G5V] | 2.71
28 | VHVISVEEPSVGASMLFDIREST [G5S] | 1.56
29 | VHVIWVEEPSVGASMLFDIREST [G5W] | 2.37
30 | VHVIGVDEPSVGASMLFDIREST [E7D] | 1.86
31 | VHVIGVLEPSVGASMLFDIREST [E7L] | 1.92
32 | VHVIGVTEPSVGASMLFDIREST [E7T] | 1.61
33 | VHVIGVKEPSVGASMLFDIREST [E7K] | 1.72
34 | VHVIGVFEPSVGASMLFDIREST [E7F] | 3.54
35 | VHVIGVYEPSVGASMLFDIREST [E7Y] | 2.91
36 | VHVIGVHEPSVGASMLFDIREST [E7H] | 1.15
37 | VHVIGVCEPSVGASMLFDIREST [E7C] | 1.81
38 | VHVIGVMEPSVGASMLFDIREST [E7M] | 2.14
39 | VHVIGVSEPSVGASMLFDIREST [E7S] | 1.94
40 | VHVIGVQEPSVGASMLFDIREST [E7Q] | 1.55
41 | VHVIGVEEPSVGASMLFDSREST [I19S] | 3.29
42 | VHVIGVEEPSVGASMLFDTREST [I19T] | 2.91
43 | VHVIGVEEPSVGASMLFDEREST [I19E] | 3.34
44 | VHVIGVEEPSVGASMLFDCREST [I19C] | 2.37
45 | VHVIGVEEPSVGASMLFDAREST [I19A] | 3.07
46 | VHVIGVEEPSVGASMLFDHREST [I19H] | 3.37
47 | VHVIGVEEPSVGASMLFDDREST [I19D] | 3.65
48 | VHVIGVEEPSVGASMLFDKREST [I19K] | 3.14
49 | VHVIGVEEPSVGASMLFDFREST [I19F] | 1.64
50 | VHVIGVEEPSVGASMLFDQREST [I19Q] | 3.4

Row | Variant | protein stability index
51 | VHVIGVEFPSVGASMLFDIREST [E8F] | 2.49
52 | VHVIGVEPPSVGASMLFDIREST [E8P] | 1.75
53 | VHVIGVESPSVGASMLFDIREST [E8S] | 2.09
54 | VHVIGVEWPSVGASMLFDIREST [E8W] | 4.73
55 | VHVIGVENPSVGASMLFDIREST [E8N] | 1.48
56 | VHVIGVEHPSVGASMLFDIREST [E8H] | 2.08
57 | VHVIGVEIPSVGASMLFDIREST [E8I] | 4.45
58 | VHVIGVEQPSVGASMLFDIREST [E8Q] | 1.78
59 | VHVIGVETPSVGASMLFDIREST [E8T] | 1.73
60 | VHVIGVEEPSVGASMLFDIRMST [E21M] | 2.04
61 | VHVIGVEEPSVGASMLFDIRWST [E21W] | 3.39
62 | VHVIGVEEPSVGASMLFDIRCST [E21C] | 2.9
63 | VHVIGVEEPSVGASMLFDIRKST [E21K] | 2.2
64 | VHVIGVEEPSVGASMLFDIRVST [E21V] | 1.78
65 | VHVIGVEEPSVGASMLFDIRPST [E21P] | 1.42
66 | VHVIGVEEPSVGASMLFDIRDST [E21D] | 2.38
67 | VHVIGVEEPSVGASMLFDIRRST [E21R] | 1.53
68 | VHVIGVEEPSVGASMLFDIRAST [E21A] | 2.37
69 | VHVIGVEEPSVGASMLFDIRIST [E21I] | 3.55
70 | VHVIGVEEPSTGASMLFDIREST [V11T] | 2.24
71 | VHVIGVEEPSDGASMLFDIREST [V11D] | 2.69
72 | VHVIGVEEPSLGASMLFDIREST [V11L] | 1.85
73 | VHVIGVEEPSCGASMLFDIREST [V11C] | 1.91
74 | VHVIGVEEPSGGASMLFDIREST [V11G] | 2.28
75 | VHVIGVEEPSNGASMLFDIREST [V11N] | 2.35

Row | Variant | protein stability index
76 | VHVIGVEEPSEGASMLFDIREST [V11E] | 2.87
77 | VHVIGVEEPSMGASMLFDIREST [V11M] | 1.82
78 | VLVIGVEEPSVGASMLFDIREST [H2L] | 2.9
79 | VKVIGVEEPSVGASMLFDIREST [H2K] | 2.29
80 | VWVIGVEEPSVGASMLFDIREST [H2W] | 2.25
81 | VYVIGVEEPSVGASMLFDIREST [H2Y] | 2.51
82 | VCVIGVEEPSVGASMLFDIREST [H2C] | 1.63
83 | VNVIGVEEPSVGASMLFDIREST [H2N] | 2.95
84 | VTVIGVEEPSVGASMLFDIREST [H2T] | 1.79
85 | VAVIGVEEPSVGASMLFDIREST [H2A] | 2.67
86 | VQVIGVEEPSVGASMLFDIREST [H2Q] | 2.27
87 | VHVIGVEEPSVGASMLFKIREST [D18K] | 1.42
88 | VHVIGVEEPSVGASMLFHIREST [D18H] | 1.39
89 | VHVIGVEEPSVGASMLFIIREST [D18I] | 3.24
90 | VHVIGVEEPSVGASMLFSIREST [D18S] | 1.75
91 | VHVIGVEEPSVGASMLFEIREST [D18E] | 1.31
92 | VHVIGVEEPSVGASMLFVIREST [D18V] | 2.9
93 | VHVIGVEEPSVGASMLFTIREST [D18T] | 1.69
94 | VHVIGVEEPSVGASMLFQIREST [D18Q] | 1.98
95 | VHVIGVEEPSVGASMLFDISEST [R20S] | 2.63
96 | VHVIGVEEPSVGASMLFDIEEST [R20E] | 3.26
97 | VHVIGVEEPSVGASMLFDIKEST [R20K] | 2.4
